The text below walks through data of the Immune Epitope Database (IEDB).

The target in one test is HLA-B*44:03. The test can be described thus: IEDB peptide-MHC binding, purified MHC/competitive/radioactivity; filed as Kd, often an IC50 or EC50 that approximates it; ≥ and ≤ were set here for values at or beyond the usual limits of such assays. Particulars: source organism: Homo sapiens.
For a further test, the target named is HLA-B*44:02. Described as above. Particulars: source organism: Homo sapiens.
In the next test the target is HLA-A*29:02. Described as above.
For test [1], the target named is HLA-A*24:02. The test is described as follows: IEDB peptide-MHC binding, purified MHC/competitive/fluorescence; ≥ and ≤ were set here for values at or beyond the usual limits of such assays.
For another test, the target named is HLA-A*02:01. The test is described as above.
The target in test [2] is HLA-A*26:01. The test is described as follows: IEDB peptide-MHC binding, purified MHC/direct/fluorescence; filed as Kd, often an IC50 or EC50 that approximates it; ≥ and ≤ were set here for values at or beyond the usual limits of such assays.
A further test has as its target HLA-A*32:01. The test is described as follows: IEDB peptide-MHC binding, purified MHC/competitive/radioactivity; filed as Kd, often an IC50 or EC50 that approximates it; ≥ and ≤ were set here for values at or beyond the usual limits of such assays.
The next test deals with HLA-A*30:02. The description is as above.
A further test addresses HLA-A*30:01. The description is as above.
A further test concerns the target HLA-A*01:01. The test is described as above.
The target of test [3] is HLA-B*15:01. Described as above.
The target of another test is HLA-B*08:01. The test is described as above. Particulars: source organism: Vaccinia virus WR.
The target of test [4] is HLA-B*15:01. The test is described as follows: IEDB peptide-MHC binding, purified MHC/competitive/fluorescence; filed as Kd, often an IC50 or EC50 that approximates it; ≥ and ≤ were set here for values at or beyond the usual limits of such assays.
Test [5] concerns the target HLA-A*26:01. The test can be described thus: IEDB peptide-MHC binding, purified MHC/competitive/radioactivity; filed as Kd, often an IC50 or EC50 that approximates it; ≥ and ≤ were set here for values at or beyond the usual limits of such assays.
Test [6] deals with HLA-A*24:02. Described as above. Particulars: source organism: SARS coronavirus Tor2.
The next test concerns the target HLA-A*23:01. The description is as above. Particulars: source organism: SARS coronavirus Tor2.
[7] abbreviates: source organism: Zaire ebolavirus.
Where [8] appears, read: source organism: Vaccinia virus.
Where [9] appears, read: source organism: Mammarenavirus juninense.
Setting [10] is: source organism: Vaccinia virus WR.
The mark [11] stands for this setting: source organism: Dengue virus 2 Peru/IQT2913/1996.
The mark [12] stands for this setting: source organism: Dengue virus 3 Martinique/1243/1999.
[13] abbreviates: source organism: SARS coronavirus Tor2.
Where [14] appears, read: source organism: Mammarenavirus brazilense.
Where [15] appears, read: source organism: Vaccinia virus Copenhagen.

As usually defined, the Kd is the constant that tells how readily two partners part at equilibrium. Broadly, the IC50 is the midpoint of a concentration-inhibition curve. Lower therefore signals greater potency in that assay.

Bounds are passed on as bounds.

Regarding AELLNIPFLY, the results for the Kd in the test with HLA-B*44:03, with HLA-B*44:02 and with HLA-A*29:02 (source organism: Homo sapiens) were 2.7 nM, 5 nM and 108 nM, respectively.

For AKNISGQSP, the IC50 with HLA-A*24:02 [1] (setting [7]) is no less than 552000 nM.

Consider ATNLEYKTL, for which the IC50 with HLA-A*24:02 [1] (setting [8]) was 43600 nM; in the test with HLA-A*02:01 (setting [8]), no less than 85800 nM.

Turning to CVLEAMAFL, the Kd in the test with HLA-A*26:01 [2] (source organism: Influenza A virus (A/chicken/Hebei/nj/2002(H9N2))) was no less than 20000 nM.

As for ECLPAAPDG, the IC50 with HLA-A*24:02 [1] (setting [7]) is no less than 394000 nM.

In the case of EGIYIEGLM, the IC50 with HLA-A*24:02 [1] (setting [7]) was no less than 154000 nM.

Turning to ELGNILSVY, the Kd with HLA-A*26:01 [2] (setting [9]) is 16.5 nM; with HLA-A*32:01 (setting [9]), no less than 77800 nM; with HLA-A*30:02 (setting [9]), 4.02 nM; with HLA-A*30:01 (setting [9]) it was 11000 nM; with HLA-A*29:02 (setting [9]), 11000 nM; with HLA-A*01:01 (setting [9]) it was 16500 nM.

Regarding ESKMSFLPI, the Kd was found to be 358 nM with HLA-B*15:01 [3] (setting [10]) and 1.06 nM with HLA-B*08:01.

With FFQVIAKRY, the Kd with HLA-B*15:01 [4] (source organism: Yersinia pestis Antiqua) is no less than 20000 nM.

FGAQHSTTL yielded an IC50 in the test with HLA-A*24:02 [1] (source organism: Sudan ebolavirus) of 60500 nM.

As for FIFNIIMSF, the dissociation constant (Kd) with HLA-B*15:01 [3] (setting [10]) was 399 nM.

Turning to FTMRHKKATY, the Kd in the test with HLA-A*30:02 (setting [11]) is no less than 43400 nM; with HLA-B*15:01 [3] (setting [11]) it was 138 nM; with HLA-A*01:01 (setting [11]) it was 1260 nM.

Regarding GMMDGWYGF, the Kd in the test with HLA-B*15:01 [4] (source organism: Influenza A virus (A/Queensland/11/2001(H3N2))) was 21.9 nM.

Take HVTRGAVLTY: the values for the Kd with HLA-B*15:01 [3] (setting [12]) and with HLA-A*26:01 [5] (setting [12]) were 94 nM and 114 nM, respectively.

For IDFLLQRWG, the IC50 with HLA-A*24:02 [1] (setting [7]) is 68400 nM; with HLA-A*02:01 (setting [7]), no less than 134000 nM.

Take IIIPFIAYF: the Kd with HLA-B*15:01 [3] (setting [10]) turned out to be 1.59 nM.

In the test with HLA-A*24:02 [1] (source organism: West Nile virus), IMSKDKPTI gave an IC50 of 1980 nM.

Turning to KFLTNKLLL, the Kd was 1090 nM with HLA-A*24:02 [6]; no less than 27300 nM with HLA-A*30:02 (setting [13]); no less than 61000 nM with HLA-A*26:01 [5] (setting [13]); no less than 24200 nM with HLA-A*29:02 (setting [13]); no less than 78100 nM in the test with HLA-A*01:01 (setting [13]); 379 nM with HLA-A*23:01.

On to KVKSCLCSF, for which, in the test with HLA-B*15:01 [3] (setting [10]), the Kd was 16.6 nM.

For KVNACHHNY, the Kd in the test with HLA-A*32:01 (setting [14]) was 445 nM; in the test with HLA-A*30:02 (setting [14]), 11.7 nM; in the test with HLA-A*30:01 (setting [14]), 501 nM; with HLA-A*26:01 [5] (setting [14]), no less than 77900 nM; with HLA-A*29:02 (setting [14]), 115 nM; with HLA-A*01:01 (setting [14]), 3840 nM.

For KVSCSMLEF, in the test with HLA-B*15:01 [3] (setting [15]), the Kd stood at 0.84 nM.

As to KVSIYKTHI, in the test with HLA-B*15:01 [3] (setting [10]), the Kd was found to be 1460 nM.

Turning to LANFLCLLM, the Kd with HLA-B*15:01 [3] (setting [10]) stood at 1310 nM.

With LFVTIYSHL, the Kd with HLA-A*24:02 [6] was 132 nM; in the test with HLA-A*30:02 (setting [13]), no less than 47400 nM; with HLA-A*26:01 [5] (setting [13]), 1100 nM; in the test with HLA-A*29:02 (setting [13]) it was 1420 nM; with HLA-A*01:01 (setting [13]), 3760 nM; with HLA-A*23:01, 9.22 nM.

With LILSCIFAF, the Kd was 427 nM with HLA-A*32:01 (setting [15]) and 543 nM with HLA-B*15:01 [3] (setting [15]).

Take LIVMDEAHF: in the test with HLA-B*15:01 [3] (source organism: Dengue virus 4 Philippines/H241/1956), the Kd stood at 30.9 nM.

In the case of LIWKVNPEI, the values for the IC50 with HLA-A*24:02 [1] (setting [7]) and in the test with HLA-A*02:01 (setting [7]) were 1310 nM and 426 nM, respectively.

Consider LLHRCIYHY, for which, in the test with HLA-B*15:01 [3] (setting [10]), the Kd came out at 42.9 nM.

In the case of LTNSVIIMAY, the Kd in the test with HLA-A*24:02 [6] was no less than 70300 nM; in the test with HLA-A*30:02 (setting [13]) it was 49.1 nM; with HLA-A*26:01 [5] (setting [13]) it was 2000 nM; with HLA-A*29:02 (setting [13]), 8.07 nM; with HLA-A*01:01 (setting [13]), 98.1 nM; with HLA-A*23:01 it was no less than 70000 nM.

With MADQAMTQMY, the Kd with HLA-A*24:02 [6] was no less than 70300 nM; in the test with HLA-A*30:02 (setting [13]), 127 nM; in the test with HLA-A*26:01 [5] (setting [13]), 2830 nM; with HLA-A*29:02 (setting [13]) it was 9.75 nM; in the test with HLA-A*01:01 (setting [13]), 18.4 nM; in the test with HLA-A*23:01, no less than 70000 nM.

Take MGLNYKLTF: in the test with HLA-B*15:01 [3] (setting [10]), the Kd was found to be 3540 nM.
